Data on one molecule can be found in US20230094463A1, “ANTIBODIES THAT DISRUPT THE INTERACTION OF GAL3 AND INSULIN RECEPTOR OR INTEGRINS AND METHODS OF USE THEREOF” (TrueBinding, Inc., priority 2019, published 2023).

This experiment concerns the target T1, Gal3 peptides (SEQ ID NOs: 3-26) (Homo sapiens, UniProt P17931).
T1 construct: a library of 24 amino acid peptides representing portions of Gal3; purchased LifeTein custom order
Kind of experiment: Gal3 peptide library binding ELISA (epitope mapping). (In general: In an ELISA, binding on a coated surface is turned into a signal by an enzyme label.)

B1: TB001: Gal3-targeted Gal3-INSR blocking anti-Gal3 antibody; IMT001-4 used with human IgG4 isotype control (antibody, V domains shown)
VH: QVQLVQSGSELKKPGASVKVSCKASGYTFTNYGMNWVRQAPGQGLKWMGWINTNTGEPTYVEEFTGRFVFSLETSVSTAYLQISSLKAEDTAVYFCAPYDNFFAYWGQGTTVTVSS
VL: DIVLTQSPLSLPVTPGEPASISCRSSKSLLYKDGKTYLNWFLQKPGQSPQLLIYLMSTHASGVPDRFSGSGSGTDFTLKISRVEAEDVGVYYCQQLVDYPLTFGGGTKLEIK
For B1, the “binding to Gal3 Peptide 5” value (Peptide 5 (SEQ ID NO: 7)) was “bind”. In addition, the “binding to Gal3 Peptide 6” value (Peptide 6 (SEQ ID NO: 8), amino acids 51-70 of Gal3, listed as IMT001 (TB001)) is “bind and bound”.
